From publication PMC11404848 (2024)

Target: Sensor^BtsK (Stenotrophomonas maltophilia CGMCC …, labelled with the Monolith NT.115 Protein Labeling Kit Red NHS (a dye that reacts with amines))
Assay: MST

B1: BtsD^Δ(SP-GGDEF) (domain or fragment)
chain: APPLRDYAIDVWTSRNGLPHNSLRDIAQTPEGHLWFATWEGLVRYNGLDFTVFDRSTRPGLRDNGIGALLVDRQGGLWISDSRGNVSHRGNDGQWRVWEHQADTPQVLIQSMQMDSQGRLWLLYEGKGIGYLTPDKGIVYQAPAADLPMAMSFTKLVVDAQDRVWVGTLDGLVLRDNDGVLKRAPAAWGLGAGTGLSWPYRAPDGALWIVAGERLYRVEDDQLVLVHRLPGQLHMTSMLQDRHGDLWLGTENQGLLRISAHGLERLPAGLNLPGGRVVSLREDAEGSIWVGANGGLYRLRETLFSSYTERDGLSGDYVRTVLEDRDRQLWVGSASGLDLQTPDGRFRAVPLHNRGGKAPSVLSLAQGPDGDLWVGTFGDGVYRLDRDGSLRHNYAAADGMPGGNIRAISVDPQGRVWAGTQKGVVRIDGDRVQVSTAPGMPGGLITALEHDHQGNLWIGTIEGIRVLRGDHVQSIDLAPMGGGRSVFGFHQLGEAMWISSDRGLYRWRDGKLARVGLEQGMPVDAVFQLVPDRLGNVWISSNRGVLRTDMATLNAVADGRAPRVVVERYNEIDGMANAQANGSSGPSAILRQDGTFWVVTAGGLSTVDPQRLQRFRERPSPPAAIESVQVDGAPVHWEGPDRNYIPGGRRLAVSYVGLSYLMSDRIRYRTRLEGLDAGWVERGPQRSVEFVGLPPGDYTLHVSAAHPGGAWGQQEAVWSFTVEPFWWQRRSVQLLGGLLLLAGLVVLYRLLLQQLKASNLRLARRVDEATFDLQAKTVHLQALNQEKTELAER
For B1, the Kd was 3.17 µM.
